Measured values taken from paper PMC4137108.

Tests used:
[1] = biological target: Apaf-1 (human (endogenous in HeLa)) (UniProt O14727)
[2] = biological target: Apaf-1 (human (endogenous in HeLa)) (UniProt O14727); remark: listed apart in the source

Sequence of UniProt O14727 (O14727 whole entry): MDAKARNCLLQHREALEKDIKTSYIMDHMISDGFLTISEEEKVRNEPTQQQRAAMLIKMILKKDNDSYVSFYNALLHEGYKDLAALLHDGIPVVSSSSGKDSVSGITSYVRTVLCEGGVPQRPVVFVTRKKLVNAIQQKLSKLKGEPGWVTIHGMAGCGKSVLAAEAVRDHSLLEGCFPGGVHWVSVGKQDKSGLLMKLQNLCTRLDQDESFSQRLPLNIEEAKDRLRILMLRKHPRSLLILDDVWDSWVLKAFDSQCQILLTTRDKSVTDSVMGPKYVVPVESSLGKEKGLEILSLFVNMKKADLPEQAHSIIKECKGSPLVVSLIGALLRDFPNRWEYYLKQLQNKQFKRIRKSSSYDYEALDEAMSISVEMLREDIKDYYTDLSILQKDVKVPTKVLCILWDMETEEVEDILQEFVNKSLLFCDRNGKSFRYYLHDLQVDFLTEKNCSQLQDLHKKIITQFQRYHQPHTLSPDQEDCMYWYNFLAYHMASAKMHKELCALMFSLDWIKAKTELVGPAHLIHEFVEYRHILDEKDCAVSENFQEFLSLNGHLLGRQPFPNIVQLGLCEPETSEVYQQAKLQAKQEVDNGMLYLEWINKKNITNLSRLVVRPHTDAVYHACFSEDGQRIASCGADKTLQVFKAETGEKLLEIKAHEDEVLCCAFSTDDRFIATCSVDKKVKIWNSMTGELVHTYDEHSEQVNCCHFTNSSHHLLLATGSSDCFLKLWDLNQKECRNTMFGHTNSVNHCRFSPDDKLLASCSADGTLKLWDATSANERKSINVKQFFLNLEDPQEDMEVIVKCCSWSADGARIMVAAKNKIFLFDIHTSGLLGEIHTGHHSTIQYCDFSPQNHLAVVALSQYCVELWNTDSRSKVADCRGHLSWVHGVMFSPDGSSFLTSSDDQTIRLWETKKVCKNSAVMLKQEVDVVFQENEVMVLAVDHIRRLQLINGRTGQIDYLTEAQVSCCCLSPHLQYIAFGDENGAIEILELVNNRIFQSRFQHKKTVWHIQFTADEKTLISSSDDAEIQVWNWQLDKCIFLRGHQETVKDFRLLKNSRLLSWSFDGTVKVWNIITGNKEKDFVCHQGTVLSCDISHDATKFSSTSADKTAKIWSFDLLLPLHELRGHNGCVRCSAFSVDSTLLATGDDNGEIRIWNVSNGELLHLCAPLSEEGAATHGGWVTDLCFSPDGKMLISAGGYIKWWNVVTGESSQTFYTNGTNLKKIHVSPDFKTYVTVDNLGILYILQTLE

Q: What does the source list for “Cytochrome c from equine heart (from UniProt P00004 1-105) (natural protein)”?
A: cell-free caspase 3 activation in HeLa cytosol (DEVD-pNA), relative to non-modified Cyt c (the reference itself) [1]: 100%; cell-free caspase 9 activation in HeLa cytosol (LEHD-pNA), relative to non-modified Cyt c (the reference itself) [1]: 100%; relative caspase 3 activation in a cell-free system after precipitation of Cyt c with acetone (water-organic solvent interface) [2]: 51%; relative caspase 3 activation in a cell-free system after precipitation of Cyt c with acetonitrile (water-organic solvent interface) [2]: 64%
